For the assay, the target named is T1, human GPC3 (human, UniProt P51654 25-563).
T1 construct: range 25-563; soluble analyte; also called soluble human GPC3; glypican 3
Nature of the assay: SPR. Background: In SPR one partner is held on a chip, and binding of the other changes the refractive index at the surface.

T1 sequence (P51654 25-563 limits assumed): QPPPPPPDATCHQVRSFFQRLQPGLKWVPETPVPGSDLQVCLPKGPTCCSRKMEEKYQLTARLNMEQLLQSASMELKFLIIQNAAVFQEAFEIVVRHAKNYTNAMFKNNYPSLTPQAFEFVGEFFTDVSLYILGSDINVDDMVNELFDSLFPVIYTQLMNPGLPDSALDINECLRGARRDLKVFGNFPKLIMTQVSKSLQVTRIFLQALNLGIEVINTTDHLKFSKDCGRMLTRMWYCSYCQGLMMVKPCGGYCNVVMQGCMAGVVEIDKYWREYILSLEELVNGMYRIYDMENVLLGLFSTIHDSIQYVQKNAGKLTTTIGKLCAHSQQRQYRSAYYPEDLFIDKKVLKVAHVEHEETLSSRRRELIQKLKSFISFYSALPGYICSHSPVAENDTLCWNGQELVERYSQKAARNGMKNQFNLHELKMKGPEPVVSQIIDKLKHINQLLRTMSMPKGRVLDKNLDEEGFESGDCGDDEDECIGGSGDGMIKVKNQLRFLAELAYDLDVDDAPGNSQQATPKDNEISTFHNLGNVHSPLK

B1: H0610-G1dh/none-Hi-Kn010G3/L0218-k0 (antibody, V domains shown)
VH: QVQLVQSGAEVKKPGASVKVSCKASGYTFTDYEMHWIRQPPGQGLEWIGAIDGKTPDTAYSQKFKGRVTLTADKSTSTAYMELSSLTSEDTAVYYCTRFYSYTYWGQGTLVTVSS
VL: DIVMTQSPLSLPVTPGEPASISCRSSQSLVHSNRNTYLHWYQQKPGQAPRLLIYKVSNRFRGVPDRFSGSGSGTDFTLKISRVEAEDVGVYYCYQGTQVPYTFGQGTKLEIK
notes: one-arm
Molecule B1 yielded a Kd of 1.99 nM.

B2: H0610-G1dh/none-Hi-Kn010G3/L0246-k0 (antibody, V domains shown)
VH: QVQLVQSGAEVKKPGASVKVSCKASGYTFTDYEMHWIRQPPGQGLEWIGAIDGKTPDTAYSQKFKGRVTLTADKSTSTAYMELSSLTSEDTAVYYCTRFYSYTYWGQGTLVTVSS
VL: DIVMTQSPLSLPVTPGEPASISCRSSQSPVHSNRNTYIQWYQQKPGQAPRLLIYKVSNRFSGVPDRFSGSGSGTDFTLKISRVEAEDVGVYYCSQGTQVPYTFGQGTKLEIK
notes: one-arm
B2: the Kd is 0.00121 nM.

B3: H0610-G1dh/none-Hi-Kn010G3/L0220-k0 (antibody, V domains shown)
VH: QVQLVQSGAEVKKPGASVKVSCKASGYTFTDYEMHWIRQPPGQGLEWIGAIDGKTPDTAYSQKFKGRVTLTADKSTSTAYMELSSLTSEDTAVYYCTRFYSYTYWGQGTLVTVSS
VL: DIVMTQSPLSLPVTPGEPASISCRSSQPLVHSNRNTYLHWYQQKPGQAPRLLIYKVSNRFRGVPDRFSGSGSGTDFTLKISRVEAEDVGVYYCYQGTQVPYTFGQGTKLEIK
notes: one-arm
Turning to B3, binding was characterised by a dissociation constant (Kd) of 1.36 nM.

B4: H0610-G1dh/none-Hi-Kn010G3/L0240-k0 (antibody, V domains shown)
VH: QVQLVQSGAEVKKPGASVKVSCKASGYTFTDYEMHWIRQPPGQGLEWIGAIDGKTPDTAYSQKFKGRVTLTADKSTSTAYMELSSLTSEDTAVYYCTRFYSYTYWGQGTLVTVSS
VL: DIVMTQSPLSLPVTPGEPASISCRSSESPVHSNRNTYLHWYQQKPGQAPRLLIYKVSNRFSGVPDRFSGSGSGTDFTLKISRVEAEDVGVYYCYQGTQVPYTFGQGTKLEIK
notes: one-arm
The molecule B4 gave a Kd of 0.848 nM.

B5: H0610-G1dh/none-Hi-Kn010G3/L0242-k0 (antibody, V domains shown)
VH: QVQLVQSGAEVKKPGASVKVSCKASGYTFTDYEMHWIRQPPGQGLEWIGAIDGKTPDTAYSQKFKGRVTLTADKSTSTAYMELSSLTSEDTAVYYCTRFYSYTYWGQGTLVTVSS
VL: DIVMTQSPLSLPVTPGEPASISCRSSESPVHSNRNTYIHWYQQKPGQAPRLLIYKVSNRFSGVPDRFSGSGSGTDFTLKISRVEAEDVGVYYCYQGTQVPYTFGQGTKLEIK
notes: one-arm
Consider B5, for which the Kd turned out to be 1.19 nM.

B6: H0610-G1dh/none-Hi-Kn010G3/L0237-k0 (antibody, V domains shown)
VH: QVQLVQSGAEVKKPGASVKVSCKASGYTFTDYEMHWIRQPPGQGLEWIGAIDGKTPDTAYSQKFKGRVTLTADKSTSTAYMELSSLTSEDTAVYYCTRFYSYTYWGQGTLVTVSS
VL: DIVMTQSPLSLPVTPGEPASISCRSSQEPVHSNRNTYIHWYQQKPGQAPRLLIYKVSNRFSGVPDRFSGSGSGTDFTLKISRVEAEDVGVYYCYQGTQVPYTFGQGTKLEIK
notes: one-arm
On to B6, for which the Kd was 1.31 nM.

B7: H0610-G1dh/none-Hi-Kn010G3/L0224-k0 (antibody, V domains shown)
VH: QVQLVQSGAEVKKPGASVKVSCKASGYTFTDYEMHWIRQPPGQGLEWIGAIDGKTPDTAYSQKFKGRVTLTADKSTSTAYMELSSLTSEDTAVYYCTRFYSYTYWGQGTLVTVSS
VL: DIVMTQSPLSLPVTPGEPASISCRSSQSPVHSNRNTYIHWYQQKPGQAPRLLIYKVSNRFPGVPDRFSGSGSGTDFTLKISRVEAEDVGVYYCYQGTQVPYTFGQGTKLEIK
notes: one-arm
B7 yielded a Kd of 0.243 nM.

B8: H0610-G1dh/none-Hi-Kn010G3/L0227-k0 (antibody, V domains shown)
VH: QVQLVQSGAEVKKPGASVKVSCKASGYTFTDYEMHWIRQPPGQGLEWIGAIDGKTPDTAYSQKFKGRVTLTADKSTSTAYMELSSLTSEDTAVYYCTRFYSYTYWGQGTLVTVSS
VL: DIVMTQSPLSLPVTPGEPASISCRSSQSPVHSNRNTYIHWYQQKPGQAPRLLIYKVSNRFSGVPDRFSGSGSGTDFTLKISRVEAEDVGVYYCLQGTQVPYTFGQGTKLEIK
notes: one-arm
For the molecule B8, binding was characterised by a dissociation constant (Kd) of 0.408 nM.

B9: H0610-G1dh/none-Hi-Kn010G3/L0243-k0 (antibody, V domains shown)
VH: QVQLVQSGAEVKKPGASVKVSCKASGYTFTDYEMHWIRQPPGQGLEWIGAIDGKTPDTAYSQKFKGRVTLTADKSTSTAYMELSSLTSEDTAVYYCTRFYSYTYWGQGTLVTVSS
VL: DIVMTQSPLSLPVTPGEPASISCRSSEPPVHSNRNTYLHWYQQKPGQAPRLLIYKVSNRFRGVPDRFSGSGSGTDFTLKISRVEAEDVGVYYCGQGTQVPYTFGQGTKLEIK
notes: one-arm
Molecule B9 registered a Kd of 0.649 nM.

B10: H0610-G1dh/none-Hi-Kn010G3/L0219-k0 (antibody, V domains shown)
VH: QVQLVQSGAEVKKPGASVKVSCKASGYTFTDYEMHWIRQPPGQGLEWIGAIDGKTPDTAYSQKFKGRVTLTADKSTSTAYMELSSLTSEDTAVYYCTRFYSYTYWGQGTLVTVSS
VL: DIVMTQSPLSLPVTPGEPASISCRSSQSLVHSNRNTYIHWYQQKPGQAPRLLIYKVSNRFRGVPDRFSGSGSGTDFTLKISRVEAEDVGVYYCGQGTQVPYTFGQGTKLEIK
notes: one-arm
Take B10: the Kd worked out at 2.28 nM.

B11: H0610-G1dh/none-Hi-Kn010G3/L0226-k0 (antibody, V domains shown)
VH: QVQLVQSGAEVKKPGASVKVSCKASGYTFTDYEMHWIRQPPGQGLEWIGAIDGKTPDTAYSQKFKGRVTLTADKSTSTAYMELSSLTSEDTAVYYCTRFYSYTYWGQGTLVTVSS
VL: DIVMTQSPLSLPVTPGEPASISCRSSQSPVHSNRNTYIHWYQQKPGQAPRLLIYKVSNRFSGVPDRFSGSGSGTDFTLKISRVEAEDVGVYYCIQGTQVPYTFGQGTKLEIK
notes: one-arm
B11 showed a Kd of 0.093 nM.

B12: H0610-G1dh/none-Hi-Kn010G3/L0232-k0 (antibody, V domains shown)
VH: QVQLVQSGAEVKKPGASVKVSCKASGYTFTDYEMHWIRQPPGQGLEWIGAIDGKTPDTAYSQKFKGRVTLTADKSTSTAYMELSSLTSEDTAVYYCTRFYSYTYWGQGTLVTVSS
VL: DIVMTQSPLSLPVTPGEPASISCRSSESLVHSNRNTYLHWYQQKPGQAPRLLIYKVSNRFSGVPDRFSGSGSGTDFTLKISRVEAEDVGVYYCGQGTQVPYTFGQGTKLEIK
notes: one-arm
For the molecule B12, the Kd came out at 5.38 nM.

B13: H0610-G1dh/none-Hi-Kn010G3/L0223-k0 (antibody, V domains shown)
VH: QVQLVQSGAEVKKPGASVKVSCKASGYTFTDYEMHWIRQPPGQGLEWIGAIDGKTPDTAYSQKFKGRVTLTADKSTSTAYMELSSLTSEDTAVYYCTRFYSYTYWGQGTLVTVSS
VL: DIVMTQSPLSLPVTPGEPASISCRSSQSPVHSNRNTYIHWYQQKPGQAPRLLIYKVSNRLSGVPDRFSGSGSGTDFTLKISRVEAEDVGVYYCYQGTQVPYTFGQGTKLEIK
notes: one-arm
With B13, the Kd stood at 0.475 nM.

B14: H0610-G1dh/none-Hi-Kn010G3/L0229-k0 (antibody, V domains shown)
VH: QVQLVQSGAEVKKPGASVKVSCKASGYTFTDYEMHWIRQPPGQGLEWIGAIDGKTPDTAYSQKFKGRVTLTADKSTSTAYMELSSLTSEDTAVYYCTRFYSYTYWGQGTLVTVSS
VL: DIVMTQSPLSLPVTPGEPASISCRSSQSPVHSNRNTYIHWYQQKPGQAPRLLIYKVSNRFSGVPDRFSGSGSGTDFTLKISRVEAEDVGVYYCYQSTQVPYTFGQGTKLEIK
notes: one-arm
With B14, the Kd was found to be 1.2 nM.

B15: H0610-G1dh/none-Hi-Kn010G3/L0230-k0 (antibody, V domains shown)
VH: QVQLVQSGAEVKKPGASVKVSCKASGYTFTDYEMHWIRQPPGQGLEWIGAIDGKTPDTAYSQKFKGRVTLTADKSTSTAYMELSSLTSEDTAVYYCTRFYSYTYWGQGTLVTVSS
VL: DIVMTQSPLSLPVTPGEPASISCRSSQSPVHSNRNTYIHWYQQKPGQAPRLLIYKVSNRFSGVPDRFSGSGSGTDFTLKISRVEAEDVGVYYCYQTTQVPYTFGQGTKLEIK
notes: one-arm
B15 displayed a Kd of 4 nM.

B16: H0610-G1dh/none-Hi-Kn010G3/L0239-k0 (antibody, V domains shown)
VH: QVQLVQSGAEVKKPGASVKVSCKASGYTFTDYEMHWIRQPPGQGLEWIGAIDGKTPDTAYSQKFKGRVTLTADKSTSTAYMELSSLTSEDTAVYYCTRFYSYTYWGQGTLVTVSS
VL: DIVMTQSPLSLPVTPGEPASISCRSSESPVHSNRNTYLHWYQQKPGQAPRLLIYKVSNRFRGVPDRFSGSGSGTDFTLKISRVEAEDVGVYYCGQGTQVPYTFGQGTKLEIK
notes: one-arm
As to B16, the Kd was determined as 0.874 nM.

B17: H0610-G1dh/none-Hi-Kn010G3/L0228-k0 (antibody, V domains shown)
VH: QVQLVQSGAEVKKPGASVKVSCKASGYTFTDYEMHWIRQPPGQGLEWIGAIDGKTPDTAYSQKFKGRVTLTADKSTSTAYMELSSLTSEDTAVYYCTRFYSYTYWGQGTLVTVSS
VL: DIVMTQSPLSLPVTPGEPASISCRSSQSPVHSNRNTYIHWYQQKPGQAPRLLIYKVSNRFSGVPDRFSGSGSGTDFTLKISRVEAEDVGVYYCVQGTQVPYTFGQGTKLEIK
notes: one-arm
For the molecule B17, the Kd was 0.202 nM.

B18: H0610-G1dh/none-Hi-Kn010G3/L0231-k0 (antibody, V domains shown)
VH: QVQLVQSGAEVKKPGASVKVSCKASGYTFTDYEMHWIRQPPGQGLEWIGAIDGKTPDTAYSQKFKGRVTLTADKSTSTAYMELSSLTSEDTAVYYCTRFYSYTYWGQGTLVTVSS
VL: DIVMTQSPLSLPVTPGEPASISCRSSQSPVHSNRNTYIHWYQQKPGQAPRLLIYKVSNRFSGVPDRFSGSGSGTDFTLKISRVEAEDVGVYYCYQGTQWPYTFGQGTKLEIK
notes: one-arm
In the case of B18, binding was characterised by a dissociation constant (Kd) of 0.589 nM.

B19: H0610-G1dh/none-Hi-Kn010G3/L0234-k0 (antibody, V domains shown)
VH: QVQLVQSGAEVKKPGASVKVSCKASGYTFTDYEMHWIRQPPGQGLEWIGAIDGKTPDTAYSQKFKGRVTLTADKSTSTAYMELSSLTSEDTAVYYCTRFYSYTYWGQGTLVTVSS
VL: DIVMTQSPLSLPVTPGEPASISCRSSQEPVHSNRNTYLHWYQQKPGQAPRLLIYKVSNRFRGVPDRFSGSGSGTDFTLKISRVEAEDVGVYYCGQGTQVPYTFGQGTKLEIK
notes: one-arm
Take B19: the Kd was 0.778 nM.

B20: H0610-G1dh/none-Hi-Kn010G3/L0238-k0 (antibody, V domains shown)
VH: QVQLVQSGAEVKKPGASVKVSCKASGYTFTDYEMHWIRQPPGQGLEWIGAIDGKTPDTAYSQKFKGRVTLTADKSTSTAYMELSSLTSEDTAVYYCTRFYSYTYWGQGTLVTVSS
VL: DIVMTQSPLSLPVTPGEPASISCRSSEPPVHSNRNTYLHWYQQKPGQAPRLLIYKVSNRFSGVPDRFSGSGSGTDFTLKISRVEAEDVGVYYCYQGTQVPYTFGQGTKLEIK
notes: one-arm
For the molecule B20, binding was put at a Kd of 0.637 nM.

B21: H0610-G1dh/none-Hi-Kn010G3/L0233-k0 (antibody, V domains shown)
VH: QVQLVQSGAEVKKPGASVKVSCKASGYTFTDYEMHWIRQPPGQGLEWIGAIDGKTPDTAYSQKFKGRVTLTADKSTSTAYMELSSLTSEDTAVYYCTRFYSYTYWGQGTLVTVSS
VL: DIVMTQSPLSLPVTPGEPASISCRSSQELVHSNRNTYLHWYQQKPGQAPRLLIYKVSNRFSGVPDRFSGSGSGTDFTLKISRVEAEDVGVYYCGQGTQVPYTFGQGTKLEIK
notes: one-arm
The molecule B21 registered an equilibrium dissociation constant (Kd) of 3.55 nM.

As usually defined, the Kd is the constant that tells how readily two partners part at equilibrium. A higher Kd goes with a looser complex.

These data come from patent publication US20250066503A1, “CELL INJURY INDUCING THERAPEUTIC DRUG FOR USE IN CANCER THERAPY” (CHUGAI SEIYAKU KABUSHIKI KAISHA, priority 2016, published 2025).
